Results reported in paper PMC2680354.

Experiments:
[1] = target: N-WASPC (autoinhibited C-terminal fragment of N-WASP) (UniProt O08816); test: ITC
[2] = target: N-WASPC (autoinhibited C-terminal fragment of N-WASP) (UniProt O08816)
[3] = target: glutathione S-transferase (GST)
[4] = target: rapamycin-mediated complex of FKBP-WASP VCA-His6 and mTOR-WASP VCA-FLAG; test: pull-down

N-WASPC (autoinhibited C-terminal fragment of N-WASP), sequence (O08816 whole entry, the tested form may be a part): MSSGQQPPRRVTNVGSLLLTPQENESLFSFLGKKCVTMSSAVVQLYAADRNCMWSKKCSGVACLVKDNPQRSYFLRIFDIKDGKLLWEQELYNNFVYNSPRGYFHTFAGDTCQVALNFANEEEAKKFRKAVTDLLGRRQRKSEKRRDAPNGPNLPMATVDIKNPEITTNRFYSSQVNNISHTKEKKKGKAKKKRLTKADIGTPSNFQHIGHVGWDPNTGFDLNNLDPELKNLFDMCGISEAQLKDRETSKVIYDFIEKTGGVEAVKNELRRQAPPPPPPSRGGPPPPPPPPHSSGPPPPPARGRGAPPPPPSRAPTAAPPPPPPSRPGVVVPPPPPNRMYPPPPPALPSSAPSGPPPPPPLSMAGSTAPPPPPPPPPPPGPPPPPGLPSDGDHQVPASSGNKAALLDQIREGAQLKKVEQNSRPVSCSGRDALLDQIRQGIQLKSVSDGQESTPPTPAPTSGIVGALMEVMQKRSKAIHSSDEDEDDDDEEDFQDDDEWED
EspFu 2RC (identical repeats four and five), sequence (P0DJ88 whole entry, the tested form may be a part): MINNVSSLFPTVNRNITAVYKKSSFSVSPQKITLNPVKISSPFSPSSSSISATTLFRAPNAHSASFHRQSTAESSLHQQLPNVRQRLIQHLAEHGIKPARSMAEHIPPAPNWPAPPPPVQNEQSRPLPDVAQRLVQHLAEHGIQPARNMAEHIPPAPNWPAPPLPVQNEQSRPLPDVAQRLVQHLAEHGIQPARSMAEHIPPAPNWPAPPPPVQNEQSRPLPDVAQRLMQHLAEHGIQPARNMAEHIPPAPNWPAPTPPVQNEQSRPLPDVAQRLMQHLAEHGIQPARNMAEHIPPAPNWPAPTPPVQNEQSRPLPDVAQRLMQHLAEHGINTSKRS
EspFu 1R (a single repeat of EspFu, the fourth repeat), sequence (P0DJ88 whole entry, the tested form may be a part): as above
glutathione S-transferase (GST) (natural protein), sequence (P08515 2-218): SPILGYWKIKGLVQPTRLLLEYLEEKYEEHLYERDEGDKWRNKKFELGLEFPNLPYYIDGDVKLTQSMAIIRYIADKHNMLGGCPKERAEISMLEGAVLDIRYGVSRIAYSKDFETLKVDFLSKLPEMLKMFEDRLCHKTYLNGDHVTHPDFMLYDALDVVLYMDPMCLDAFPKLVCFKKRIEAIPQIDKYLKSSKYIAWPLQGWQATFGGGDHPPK

In the case of “EspFu 1R (a single repeat of EspFu, the fourth repeat) (from UniProt P0DJ88 1-337) (domain or fragment)”, the Kd [1] is reported as 35 nM.
“EspFu 2RC (identical repeats four and five) (from UniProt P0DJ88 1-337) (domain or fragment)” gave a Kd [1] of 39 nM and a fold tighter affinity than 2R [2] of 3 fold.
In the case of “glutathione S-transferase (GST) (natural protein)”, the Kd [3] is reported as < 1 nM.
In the case of “Arp2/3 complex, endogenous in HEK293 cells (from UniProt P61158 1-418)”, the fold increase in precipitated Arp2/3 with rapamycin over no rapamycin [4] is reported as > 3 fold.
